Reference: PMC11714219

B1: Estrogen receptor alpha, full length, ECFP-tagged, as in the ER βα FL biosensors with the linker [not stated] / Estrogen receptor beta (ER β), full length, mNeonGreen-tagged, as in the ER βα FL FRET biosensor [not stated] (parent)
chain 1: MTMTLHTKASGMALLHQIQGNELEPLNRPQLKIPLERPLGEVYLDSSKPAVYNYPEGAAYEFNAAAAANAQVYGQTGLPYGPGSEAAAFGSNGLGGFPPLNSVSPSPLMLLHPPPQLSPFLQPHGQQVPYYLENEPSGYTVREAGPPAFYRPNSDNRRQGGRERLASTNDKGSMAMESAKETRYCAVCNDYASGYHYGVWSCEGCKAFFKRSIQGHNDYMCPATNQCTIDKNRRKSCQACRLRKCYEVGMMKGGIRKDRRGGRMLKHKRQRDDGEGRGEVGSAGDMRAANLWPSPLMIKRSKKNSLALSLTADQMVSALLDAEPPILYSEYDPTRPFSEASMMGLLTNLADRELVHMINWAKRVPGFVDLTLHDQVHLLECAWLEILMIGLVWRSMEHPGKLLFAPNLLLDRNQGKCVEGMVEIFDMLLATSSRFRMMNLQGEEFVCLKSIILLNSGVYTFLSSTLKSLEEKDHIHRVLDKITDTLIHLMAKAGLTLQQQHQRLAQLLLILSHIRHMSNKGMEHLYSMKCKNVVPLYDLLLEMLDAHRLHAPTSRGGASVEETDQSHLATAGSTSSHSLQKYYITGEAEGFPATV
chain 2: MDIKNSPSSLNSPSSYNCSQSILPLEHGSIYIPSSYVDSHHEYPAMTFYSPAVMNYSIPSNVTNLEGGPGRQTTSPNVLWPTPGHLSPLVVHRQLSHLYAEPQKSPWCEARSLEHTLPVNRETLKRKVSGNRCASPVTGPGSKRDAHFCAVCSDYASGYHYGVWSCEGCKAFFKRSIQGHNDYICPATNQCTIDKNRRKSCQACRLRKCYEVGMVKCGSRRERCGYRLVRRQRSADEQLHCAGKAKRSGGHAPRVRELLLDALSPEQLVLTLLEAEPPHVLISRPSAPFTEASMMMSLTKLADKELVHMISWAKKIPGFVELSLFDQVRLLESCWMEVLMMGLMWRSIDHPGKLIFAPDLVLDRDEGKCVEGILEIFDMLLATTSRFRELKLQHKEYLCVKAMILLNSSMYPLVTATQDADSSRKLAHLLNAVTDALVWVIAKSGISSQQQSMRLANLLMLLSHVRHASNKGMEHLLNMKCKNVVPVYDLLLEMLNAHVLRGCKSSITGSECSPAEDSKSKEGSQNPQSQ

Variants of: B1
Assay: live-cell FRET biosensor imaging (ER βα heterodimerization, FRET/ECFP emission ratio)
Conditions: with Estrogen receptor beta (ER β), 1 µM 17β-estradiol, value read at the end of the time course (30 min after E2), α mutant n = 12, WT n = 24, read off a plot, scale: R/R0

| response | Variant |
| --- | --- |
| 1.07 | chain 1 L507R |
